Measured values published in paper PMC9605926, “Safety of [^177Lu]Lu-NeoB treatment: a preclinical study characterizing absorbed dose and acute, early, and late organ toxicity” (European Journal of Nuclear Medicine and Molecular Imaging, 2022).
Several values for one entry are separate records, joined by “and”; a condition that tells them apart may be missing. Equal entries are not always repeated. Where two headings read alike, the source gives them in different places.

Tests used:
healthy Balb/c mice = test: Toxicity study, hematology (same groups as A3); format: in vivo, mouse; conditions: 5, 11, 19, 30, 43 wk, mean±SD
Procedure: Five different experimental groups (10 male and 10 female healthy animals per group; n = 100) were included in the radiotoxicity study and treated as follows: control group 1: 3 × vehicle (PBS + kolliphor HS 15 (1 mg/mL)); control group 2: 3 × 1200 pmol [^175Lu]Lu-NeoB; treatment group 1: 3 × 40 MBq/400 pmol [^177Lu]Lu-NeoB; treatment group 2: 3 × 80 MBq/800 pmol [^177Lu]Lu-NeoB; and treatment group 3: 3 × 120 MBq/1200 pmol [^177Lu]Lu-NeoB.
Animals received 3 injections with an interval of 7 days between each injection.
Throughout the study, the animals were observed daily to check for physical signs of toxicity and signs of discomfort, and animals were weighed 2–3 times per week. Furthermore, at week -1, 5, 11, 19, 30, and 43, blood samples were collected by submandibular puncture from all animals that were in the study at that time point. All blood samples were analyzed for hematological parameters (hematocrit; hemoglobin; red blood cell count; white blood cell count; hemoglobin; mean cell hemoglobin concentration; mean cell volume; platelet count) on the scilVet abc + counter (Covetrus).

[1] = Biodistribution of [177Lu]Lu-NeoB in healthy Balb/c mice, single i.v. injection, organ uptake by gamma counter; format: in vivo; conditions: male, mouse, pancreas, iv, total radioactivity, 1 h p.i., read-out: Pancreatic uptake
Procedure: Both the biodistribution and the radiotoxicity of [^177Lu]Lu-NeoB were studied after administration of 3 different dosages of the radioligand: 40 MBq/400 pmol [^177Lu]Lu-NeoB, 80 MBq/800 pmol [^177Lu]Lu-NeoB, and 120 MBq/1200 pmol [^177Lu]Lu-NeoB. The different dosages were acquired by diluting the stock [^177Lu]Lu-NeoB solution with PBS + kolliphor HS 15 (1 mg/mL). [^177Lu]Lu-NeoB was administered intravenously (tail) to conscious animals in a total volume of 200 µL.
Each dosage of [^177Lu]Lu-NeoB was injected in N = 15 healthy male animals. At 5 different time points post injection (p.i.) (t = 1, 4, 24, 48, and 96 h), 3 animals per dosage group were sacrificed, after which blood and organs were collected and measured to determine radioactivity uptake.
Since in the radiotoxicity studies animals received 3 injections of the radioligand at 1-week intervals, an additional group of 3 male animals were injected twice with 120 MBq/1200 pmol [^177Lu]Lu-NeoB at a 7 days (168 h) interval. […] In addition, to determine the amount of radioactivity remaining in the blood and organs right before a second injection, 3 additional male animals were injected with 40 MBq/400 pmol [^177Lu]Lu-NeoB and the biodistribution was determined at t = 168 h. […]
In the biodistribution study, the adrenal glands, brain, intestines, heart, kidneys, liver, lungs, mammary fat pad, pancreas, muscle, spleen, stomach, prostate gland (M), testes (M), ovaries (F), and urinary bladder were collected, weighed, and measured for radioactivity uptake using a gamma counter (1480 WIZARD automatic γ counter; PerkinElmer). To calculate the percentage injected activity (%IA), a vial containing 200 µL of a 1:1000 dilution of the injected [^177Lu]Lu-NeoB solutions was also measured in the gamma counter. The %IA of all organs and tumor was corrected for the percentage of radioactivity left measured in the tail (injection site).

For `CC(C)CC(CC(C)C)NC(=O)[C@H](Cc1cnc[nH]1)NC(=O)CNC(=O)[C@@H](NC(=O)[C@H](C)NC(=O)[C@H](Cc1c[nH]c2ccccc12)NC(=O)[C@H](CCC(N)=O)NC(=O)[C@@H](Cc1ccccc1)NC(=O)COCC(=O)Nc1ccc(CNC(=O)CN2CCN(CC(=O)O)CCN(CC(=O)O)CCN(CC(=O)O)CC2)cc1)C(C)C` [[^177Lu]Lu-NeoB, metal not drawn], the WBC (healthy Balb/c mice; female, treatment group 1) was 6.20 ± 2.24 103/mm3 and 7.60 ± 3.77 103/mm3 and 6.80 ± 1.64 103/mm3 and 9.70 ± 2.96 103/mm3 and 7.20 ± 3.97 103/mm3, the WBC (healthy Balb/c mice; female, treatment group 2) was 9.10 ± 3.17 103/mm3 and 5.89 ± 2.56 103/mm3 and 7.97 ± 2.09 103/mm3 and 6.74 ± 1.77 103/mm3 and 8.98 ± 1.67 103/mm3 and the WBC (healthy Balb/c mice; male, treatment group 1) was 8.08 ± 2.38 103/mm3 and 8.53 ± 1.17 103/mm3 and 8.12 ± 1.98 103/mm3 and 9.77 ± 2.82 103/mm3 and 7.53 ± 0.83 103/mm3. The WBC (healthy Balb/c mice; male, treatment group 2) was 7.30 ± 2.24 103/mm3 and 6.65 ± 2.80 103/mm3 and 9.61 ± 1.52 103/mm3 and 8.68 ± 0.34 103/mm3 and 11.13 ± 3.50 103/mm3, the tissue uptake at 1 h ([1]; 40 MBq/400 pmol) was 8.27 ± 0.8 %ID/g and the tissue uptake at 1 h ([1]; 80 MBq/800 pmol) was 4.05 ± 0.4 %ID/g. For the same compound, the tissue uptake at 1 h ([1]; 120 MBq/1200 pmol) was 1.79 ± 0.2 %ID/g.
